Where no end group is shown, it is not given here. The star is where a group is joined. FITC = O=C1OC2(c3ccc(O)cc3Oc3cc(O)ccc32)c2ccc(NC(=S)*)cc21
Key:
[1] = biological target: T1, human COP1 β-propeller (376-731) (human, UniProt Q8NHY2 376-731); experiment: fluorescence polarisation
[2] = biological target: T1, human COP1 β-propeller (376-731); experiment: fluorescence polarisation; remark: listed apart in the source

T1 sequence (Q8NHY2 376-731): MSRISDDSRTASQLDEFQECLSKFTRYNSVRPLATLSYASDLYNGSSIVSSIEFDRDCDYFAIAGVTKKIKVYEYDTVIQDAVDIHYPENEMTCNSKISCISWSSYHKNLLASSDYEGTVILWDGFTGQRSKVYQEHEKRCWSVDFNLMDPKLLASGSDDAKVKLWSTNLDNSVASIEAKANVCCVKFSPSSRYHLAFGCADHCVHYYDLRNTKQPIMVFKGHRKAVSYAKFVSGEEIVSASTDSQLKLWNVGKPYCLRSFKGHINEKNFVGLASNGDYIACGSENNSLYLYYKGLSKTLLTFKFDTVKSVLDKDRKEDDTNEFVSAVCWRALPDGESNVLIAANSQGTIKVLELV

Kd [1]	binding result [2]	Binder
250 ± 40 nM	–	{FITC}-SEIGTSDQIVPEYQEDSDI [FITC-SEIGTSDQIVPEYQEDSDI]
–	binds	Trib1 molecule containing residues 83-372 (domain or fragment, human, UniProt Q96RU8 83-372, looked up) GSAPGPSRIADYLLLPLAEREHVSRALCIHTGRELRCKVFPIKHYQDKIRPYIQLPSHSNITGIVEVILGETKAYVFFEKDFGDMHSYVRSRKRLREEEAARLFKQIVSAVAHCHQSAIVLGDLKLRKFVFSTEERTQLRLESLEDTHIMKGEDDALSDKHGCPAYVSPEILNTTGTYSGKAADVWSLGVMLYTLLVGRYPFHDSDPSALFSKIRRGQFCIPEHISPKARCLIRSLLRREPSERLTAPEILLHPWFESVLEPGYIDSEIGTSDQIVPEYQEDSDISSFFC
